From patent US20260125457A1 (Janssen / Centocor, published 2026)
Where two headings read alike, the source gives them in different places.

Columns and labels:
[1] = target: T1, CD3EG-HSA-6xHis (CD3W220.002) (human, UniProt P07766 22-118; P09693 23-103); experiment: SPR, forced degradation: pH 8.5
T1 construct: also called human CD3; not shown: human serum albumin (HSA); 6xHis tag

[2] = target: T2, Flag/6xhis-CALRdel52 (CALRW12.007) (human, UniProt P27797 18-417); experiment: SPR, forced degradation: pH 8.5
T2 construct: also called human CALRdel52
T2 sequence (looked up): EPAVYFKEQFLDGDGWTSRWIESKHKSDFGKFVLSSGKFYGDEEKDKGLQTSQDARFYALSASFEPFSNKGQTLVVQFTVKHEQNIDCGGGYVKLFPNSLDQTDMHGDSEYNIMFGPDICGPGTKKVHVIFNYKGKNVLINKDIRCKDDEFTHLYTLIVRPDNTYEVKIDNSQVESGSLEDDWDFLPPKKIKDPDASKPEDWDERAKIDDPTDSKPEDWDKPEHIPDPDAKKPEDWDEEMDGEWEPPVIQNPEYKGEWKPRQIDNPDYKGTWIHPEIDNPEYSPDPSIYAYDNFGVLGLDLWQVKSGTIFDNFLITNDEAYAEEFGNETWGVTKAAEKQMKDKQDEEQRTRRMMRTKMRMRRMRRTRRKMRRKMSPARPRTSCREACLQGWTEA

[3] = target: T3, Avi/his-CalR-Ins5 (CALRW28.004) (human, UniProt P27797 18-417, limits assumed); experiment: SPR, forced degradation: pH 8.5
T3 construct: also called human CALRins5
T3 sequence (looked up): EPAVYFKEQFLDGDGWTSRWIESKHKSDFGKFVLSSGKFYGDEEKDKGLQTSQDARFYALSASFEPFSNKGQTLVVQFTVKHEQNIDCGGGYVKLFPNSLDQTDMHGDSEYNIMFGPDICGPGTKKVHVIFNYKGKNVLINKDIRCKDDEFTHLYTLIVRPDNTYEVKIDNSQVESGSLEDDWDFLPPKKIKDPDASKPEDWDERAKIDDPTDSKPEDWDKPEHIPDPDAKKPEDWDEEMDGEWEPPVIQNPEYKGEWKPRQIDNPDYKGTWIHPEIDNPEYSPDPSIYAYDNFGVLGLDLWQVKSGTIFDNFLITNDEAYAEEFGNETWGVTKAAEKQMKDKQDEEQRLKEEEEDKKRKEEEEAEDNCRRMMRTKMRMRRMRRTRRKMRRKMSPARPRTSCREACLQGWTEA

[4] = target: T4, thrombopoietin receptor (MPL) on cells without CALRmut (UniProt P40238 26-635, limits assumed); experiment: flow cytometry on ELF-153 MPL cells, 1 h at 37 C, AF647 secondary antibody, Geometric Mean
T4 construct: whole, on cells; endogenous on healthy donor CD34+ cells; also called TPOR
T4 sequence (looked up): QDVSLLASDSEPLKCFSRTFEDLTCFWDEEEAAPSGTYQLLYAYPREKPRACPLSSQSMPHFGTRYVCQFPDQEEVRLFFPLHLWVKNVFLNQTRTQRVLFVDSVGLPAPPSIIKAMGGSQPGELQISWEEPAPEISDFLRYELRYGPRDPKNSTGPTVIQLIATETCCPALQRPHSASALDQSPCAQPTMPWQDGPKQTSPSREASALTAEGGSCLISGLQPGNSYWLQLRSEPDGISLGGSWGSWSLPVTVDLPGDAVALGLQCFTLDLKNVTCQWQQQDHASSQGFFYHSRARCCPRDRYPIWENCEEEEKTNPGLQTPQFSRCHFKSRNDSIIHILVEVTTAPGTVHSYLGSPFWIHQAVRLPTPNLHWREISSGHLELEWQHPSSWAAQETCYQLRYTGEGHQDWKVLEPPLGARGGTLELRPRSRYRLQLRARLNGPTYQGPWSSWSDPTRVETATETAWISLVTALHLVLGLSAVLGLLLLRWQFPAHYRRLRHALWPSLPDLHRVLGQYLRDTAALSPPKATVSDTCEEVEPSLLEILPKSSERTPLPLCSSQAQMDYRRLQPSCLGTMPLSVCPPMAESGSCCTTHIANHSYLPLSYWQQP

[5] = target: T5, CALRins5 (mutant calreticulin, 5 base pair insertion, Type 2) expressed with MPL on engineered cancer cells (UniProt P27797 18-417); experiment: flow cytometry on ELF-153 MPL CALRins5 cells, 1 h at 37 C, AF647 secondary antibody, Geometric Mean
T5 construct: whole, on cells; On the cell surface in complex with MPL; also called OCI-M2 MPL CALRins5
T5 sequence (looked up): T3 sequence (looked up)
Description: FIGS. 21A-21F depict binding of different CALRmutxCD3 bispecific antibodies to CALRmut-negative or CALRmut-positive cells. Flow cytometry was used to evaluate CALRmutxCD3 binding to CALRmut-negative and CALRmut-positive cancer cells in vitro. CALRmutxCD3 antibodies were tested on a panel of cell lines, engineered to express MPL and CALRmut, after 1 hour 37° C. incubation, with subsequent incubation with secondary AF647-labeled antibody. Geometric mean fluorescence intensity of AF647 was measured to determine antibody binding.

[6] = target: T5, CALRins5 (mutant calreticulin, 5 base …); experiment: as above; remark: listed apart in the source
Description: FIGS. 4A-4F depict graphs of CALRmutxCD3 bispecific antibody C3CRB73 binding to cells CALRmut-negative or CALRmut-positive. Flow cytometry was used to evaluate C3CRB73 binding to CALRmut-negative and CALRmut-positive cancer cells in vitro. C3CRB73 and NullxCD3 control were tested on a panel of cell lines, engineered to express MPL and CALRmut, after 1 hour 37° C. incubation, with subsequent incubation with secondary AF647-labeled antibody. Geometric mean fluorescence intensity of AF647 was measured to determine antibody binding. […] Abbreviations: CALR, calreticulin; CALRmut, mutant calreticulin; CD, cluster of differentiation; del, deletion; ins, insertion; MPL, thrombopoietin receptor; spFv, stapled single chain fragment variable; wt, wild type.

[7] = target: T6, CD3 on primary human pan T cells (human, UniProt P07766 23-207); experiment: flow cytometry, CD3+ pan T cells of 6 healthy donors; average over pan T cells of 6 healthy donors; 1 hour 37° C. incubation
T6 construct: whole, on cells; also called CD3e; CD3ε
T6 sequence (P07766 23-207): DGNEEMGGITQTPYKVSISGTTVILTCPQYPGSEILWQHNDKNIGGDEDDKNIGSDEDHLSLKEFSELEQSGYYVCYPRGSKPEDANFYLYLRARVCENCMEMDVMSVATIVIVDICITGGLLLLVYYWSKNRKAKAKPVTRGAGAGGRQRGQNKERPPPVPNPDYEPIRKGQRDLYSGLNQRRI
Description: Flow cytometry was used to evaluate the CD3 arm binding of C3CRB73 to CD3+ pan T cells from 6 different healthy human donors. C3CRB73 and NullxCD3 spFv were tested after 1 hour 37° C. incubation with pan T cells.

T1 sequence (P07766 other isoform, or with tags, fused parts or gaps): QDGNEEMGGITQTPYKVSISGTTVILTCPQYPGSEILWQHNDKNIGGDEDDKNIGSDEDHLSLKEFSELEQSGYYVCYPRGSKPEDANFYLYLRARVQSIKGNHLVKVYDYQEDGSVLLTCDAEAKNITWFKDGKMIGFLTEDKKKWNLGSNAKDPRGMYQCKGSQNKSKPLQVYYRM

% Active [1]: 93%
Kd [1]: 0.28 nM
% Active [2]: 104%
Kd [2]: 0.251 nM
% Active [3]: 97%
Kd [3]: 0.0313 nM
binding result [4]: no binding (tested: 100 nM)
EC50 (read off the curve) [5]: ~2 nM
EC50 (read off the curve) [6]: ~4 nM
EC50 [7]: 23.8 nM
B1: C3CRB73 CALRmut x CD3 bispecific antibody (bispecific antibody, human IgG1, kappa, L234A L235A)
heavy: EVQLLESGGGLVQPGGSLRLSCAVSGIDLSNNAISWVRQAPGKGLEYVGVIGNTGDTYYADSAKGRFTISRDSSKTTLYLQMNSLRAEDTAVYFCVRGPPSYSSSVKNIWGQGTLVTVSSASTKGPSVFPLAPSSKSTSGGTAALGCLVKDYFPEPVTVSWNSGALTSGVHTFPAVLQSSGLYSLSSVVTVPSSSLGTQTYICNVNHKPSNTKVDKKVEPKSCDKTHTCPPCPAPEAAGGPSVFLFPPKPKDTLMISRTPEVTCVVVSVSHEDPEVKFNWYVDGVEVHNAKTKPREEQYNSTYRVVSVLTVLHQDWLNGKEYKCKVSNKALPAPIEKTISKAKGQPREPQVYTLPPSREEMTKNQVSLSCAVKGFYPSDIAVEWESNGQPENNYKTTPPVLDSDGSFFLVSKLTVDKSRWQQGNVFSCSVMHEALHNRFTQKSLSLSPGK
light: DIQMTQSPSSVSASVGDRVTITCQSSQSVYNNNWLSWLQQKPGKAPKRLIYDASKLESGVPSRFSGSGSGTDFTLTISSVQPEDAATYYCAGGFTGNVYTFGGGTKVEIKRTVAAPSVFIFPPSDEQLKSGTASVVCLLNNFYPREAKVQWKVDNALQSGNSQESVTEQDSKDSTYSLSSTLTLSKADYEKHKVYACEVTHQGLSSPVTKSFNRGEC
scFv: DIQMTQSPSSLSASVGDRVTITCRARQSIGTAIHWYQQKPGCAPKLLIKYASESISGVPSRFSGSGSGTDFTLTISSLQPEDFATYYCQQSGSWPYTFGQGTKLEIKGGGSGGSGGCPPCGGSGGEVQLVESGGGLVKPGGSLRLSCAASGFTFSRYNMNWVRQAPGKGLEWVSSISTSSNYIYYADSVKGRFTFSRDNAKNSLDLQMSGLRAEDTAIYYCTRGWGPFDYWGCGTLVTVSSEPKSSDKTHTCPPCPAPEAAGGPSVFLFPPKPKDTLMISRTPEVTCVVVSVSHEDPEVKFNWYVDGVEVHNAKTKPREEQYNSTYRVVSVLTVLHQDWLNGKEYKCKVSNKALPAPIEKTISKAKGQPREPQVYTLPPSREEMTKNQVSLWCLVKGFYPSDIAVEWESNGQPENNYKTTPPVLDSDGSFFLYSKLTVDKSRWQQGNVFSCSVMHEALHNHYTQKSLSLSPGK
notes: IgG1-AAS; also called JNJ-88549968; CALRB421 Fab x CD3 spFv
